In PMC9284966, “Construction of a T7 phage display nanobody library for bio-panning and identification of chicken dendritic cell-specific binding nanobodies” (Scientific Reports, 2022):

What was measured:
Assay in all cases: affinity purification with mass spectrometry; purified GST-VHH fusion protein as bait with lysate of immature chicken bone marrow DCs (day 6); in vitro pull-down, then HPLC-MS (done by ZoonBio Biotechnology)
Conditions in all cases: one partner purified
[1] = molecular target: T1, BTB domain-containing protein (Gallus gallus, UniProt A0A1D5NYT7)
T1 construct: BTB domain-containing protein, Gallus gallus, GN = KLHL26; also called KLHL26; source: endogenous, chicken bone marrow DC lysate

[2] = molecular target: T2, Uncharacterized protein GN = ERCC5 (Gallus gallus (SPF chick), UniProt F1P266)
T2 construct: Uncharacterized protein, Gallus gallus, GN = ERCC5; source: endogenous, chicken bone marrow DC lysate

[3] = molecular target: T3, SET domain-containing protein (Gallus gallus, UniProt A0A1D5PNH9)
T3 construct: SET domain-containing protein, Gallus gallus, GN = PRDM11; also called PRDM11; source: endogenous, chicken bone marrow DC lysate
T3 sequence (A0A1D5PNH9 entry or part of it): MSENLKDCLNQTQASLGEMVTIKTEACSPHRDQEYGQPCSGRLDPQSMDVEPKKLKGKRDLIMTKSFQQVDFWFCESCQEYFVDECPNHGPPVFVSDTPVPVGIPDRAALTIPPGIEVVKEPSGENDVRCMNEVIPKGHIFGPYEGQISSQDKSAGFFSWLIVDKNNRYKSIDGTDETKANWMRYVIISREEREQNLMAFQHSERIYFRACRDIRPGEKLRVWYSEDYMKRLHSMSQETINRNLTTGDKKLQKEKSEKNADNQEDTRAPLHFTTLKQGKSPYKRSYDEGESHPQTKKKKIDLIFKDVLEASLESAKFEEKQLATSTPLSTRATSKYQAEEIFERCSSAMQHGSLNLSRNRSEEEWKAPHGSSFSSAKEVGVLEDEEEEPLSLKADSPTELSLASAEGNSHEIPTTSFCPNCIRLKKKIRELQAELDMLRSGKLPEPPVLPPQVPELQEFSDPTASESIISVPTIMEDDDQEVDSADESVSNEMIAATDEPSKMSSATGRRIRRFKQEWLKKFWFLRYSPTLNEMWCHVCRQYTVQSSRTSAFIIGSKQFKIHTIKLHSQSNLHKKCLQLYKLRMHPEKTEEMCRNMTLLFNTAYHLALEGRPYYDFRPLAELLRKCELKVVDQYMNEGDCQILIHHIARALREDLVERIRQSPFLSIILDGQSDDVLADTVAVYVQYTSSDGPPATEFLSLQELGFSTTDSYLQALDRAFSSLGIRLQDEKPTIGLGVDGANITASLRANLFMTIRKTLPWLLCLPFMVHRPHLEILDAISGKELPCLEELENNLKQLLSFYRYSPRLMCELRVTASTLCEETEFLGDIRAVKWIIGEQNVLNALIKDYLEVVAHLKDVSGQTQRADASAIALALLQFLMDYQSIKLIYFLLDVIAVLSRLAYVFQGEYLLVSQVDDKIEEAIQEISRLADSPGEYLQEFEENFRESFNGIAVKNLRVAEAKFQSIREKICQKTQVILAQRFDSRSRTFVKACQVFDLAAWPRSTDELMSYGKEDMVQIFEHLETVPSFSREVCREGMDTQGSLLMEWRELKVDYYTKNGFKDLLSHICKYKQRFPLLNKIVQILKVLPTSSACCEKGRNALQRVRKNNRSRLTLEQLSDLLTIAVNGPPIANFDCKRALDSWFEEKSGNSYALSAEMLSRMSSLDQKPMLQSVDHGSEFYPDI

[4] = molecular target: T4, Extracellular serine/threonine protein kinase FAM20C isoform X1 (Gallus gallus, UniProt A0A3G2WC03)
T4 construct: Extracellular serine/threonine protein kinase FAM20C isoform X1, Gallus gallus; no GN field printed, the symbol stands in the name; source: endogenous, chicken bone marrow DC lysate

[5] = molecular target: T5, Protein disulfide-isomerase (Gallus gallus (SPF chick), UniProt P09102)
T5 construct: Protein disulfide-isomerase, Gallus gallus, GN = P4HB; also called P4HB; source: endogenous, chicken bone marrow DC lysate

[6] = molecular target: T6, Uncharacterized protein GN = LCP1 (Gallus gallus (SPF chick), UniProt Q5ZLW0)
T6 construct: Uncharacterized protein, Gallus gallus, GN = LCP1; source: endogenous, chicken bone marrow DC lysate

[7] = molecular target: T7, Uncharacterized protein GN = ZBTB26 (Gallus gallus, UniProt A0A1D5NTV7)
T7 construct: Uncharacterized protein, Gallus gallus, GN = ZBTB26; source: endogenous, chicken bone marrow DC lysate
T7 sequence (A0A1D5NTV7 entry or part of it): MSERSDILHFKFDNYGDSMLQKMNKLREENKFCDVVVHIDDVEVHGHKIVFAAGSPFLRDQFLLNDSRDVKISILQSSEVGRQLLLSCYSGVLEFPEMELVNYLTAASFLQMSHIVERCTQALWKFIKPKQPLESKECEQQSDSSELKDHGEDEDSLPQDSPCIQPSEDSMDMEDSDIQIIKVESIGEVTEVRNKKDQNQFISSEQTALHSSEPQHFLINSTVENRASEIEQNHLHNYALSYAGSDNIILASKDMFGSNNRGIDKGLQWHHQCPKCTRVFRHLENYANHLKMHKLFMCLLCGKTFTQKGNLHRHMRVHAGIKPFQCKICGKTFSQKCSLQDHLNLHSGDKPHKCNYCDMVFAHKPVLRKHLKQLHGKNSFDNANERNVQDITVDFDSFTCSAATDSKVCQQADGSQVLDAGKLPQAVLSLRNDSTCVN

[8] = molecular target: T8, Glutathione S-transferase (Gallus gallus (SPF chick), UniProt Q08392)
T8 construct: Glutathione S-transferase, Gallus gallus; no gene name printed; source: endogenous, chicken bone marrow DC lysate

[9] = molecular target: T9, E3 ubiquitin-protein ligase TRIM71 (Gallus gallus (SPF chick), UniProt Q1PRL4)
T9 construct: E3 ubiquitin-protein ligase TRIM71, Gallus gallus, GN = TRIM71; source: endogenous, chicken bone marrow DC lysate
T9 sequence (Q1PRL4 whole entry): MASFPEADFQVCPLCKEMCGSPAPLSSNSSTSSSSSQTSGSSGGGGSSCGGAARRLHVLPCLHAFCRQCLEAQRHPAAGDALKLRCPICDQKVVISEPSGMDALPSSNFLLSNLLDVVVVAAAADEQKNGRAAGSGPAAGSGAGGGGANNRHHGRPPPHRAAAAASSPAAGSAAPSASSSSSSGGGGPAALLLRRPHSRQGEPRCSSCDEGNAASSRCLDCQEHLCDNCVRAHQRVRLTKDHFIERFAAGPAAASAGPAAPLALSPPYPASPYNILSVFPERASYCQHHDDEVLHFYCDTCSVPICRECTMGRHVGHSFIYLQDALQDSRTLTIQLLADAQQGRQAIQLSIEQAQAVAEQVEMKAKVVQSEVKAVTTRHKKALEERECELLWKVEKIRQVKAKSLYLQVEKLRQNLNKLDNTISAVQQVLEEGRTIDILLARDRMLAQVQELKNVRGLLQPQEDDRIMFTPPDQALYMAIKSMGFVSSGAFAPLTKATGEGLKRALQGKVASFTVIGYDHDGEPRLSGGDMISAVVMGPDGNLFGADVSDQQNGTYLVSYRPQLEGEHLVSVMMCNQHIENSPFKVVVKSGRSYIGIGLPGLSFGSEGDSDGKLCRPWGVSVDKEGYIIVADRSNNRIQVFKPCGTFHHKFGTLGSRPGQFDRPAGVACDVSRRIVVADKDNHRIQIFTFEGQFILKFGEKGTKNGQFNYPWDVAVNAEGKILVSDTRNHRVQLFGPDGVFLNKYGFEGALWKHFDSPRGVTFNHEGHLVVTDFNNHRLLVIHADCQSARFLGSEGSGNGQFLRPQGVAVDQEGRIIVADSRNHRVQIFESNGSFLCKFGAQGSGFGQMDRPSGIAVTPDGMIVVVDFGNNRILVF

Calreticulin = molecular target: T10, Calreticulin (Gallus gallus, UniProt A0A8V0X980)
T10 construct: Calreticulin, Gallus gallus, GN = CALR; source: endogenous, chicken bone marrow DC lysate

[10] = molecular target: T11, Voltage-dependent anion-selective channel protein 1 (Gallus gallus, UniProt E1BYN7)
T11 construct: Voltage-dependent anion-selective channel protein 1, Gallus gallus, GN = VDAC1; also called VDAC1; VDAC; source: endogenous, chicken bone marrow DC lysate

[11] = molecular target: T12, RING-type E3 ubiquitin transferase (Gallus gallus (endogenous, immature …, UniProt A0A8V0YPN2))
T12 construct: RING-type E3 ubiquitin transferase, Gallus gallus, GN = UHRF2; also called UHRF2; source: endogenous, chicken bone marrow DC lysate

[12] = molecular target: T13, Uncharacterized protein GN = RAP1A (Gallus gallus (SPF chick), UniProt F1NSA8)
T13 construct: Uncharacterized protein, Gallus gallus, GN = RAP1A; source: endogenous, chicken bone marrow DC lysate
T13 sequence (F1NSA8 entry or part of it): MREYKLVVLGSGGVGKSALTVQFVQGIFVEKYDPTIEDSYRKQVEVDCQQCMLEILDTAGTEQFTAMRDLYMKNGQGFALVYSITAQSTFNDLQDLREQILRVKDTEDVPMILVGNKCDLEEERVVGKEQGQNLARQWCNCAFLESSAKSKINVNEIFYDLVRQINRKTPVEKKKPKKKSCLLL

[13] = molecular target: T14, Uncharacterized protein GN = GPC2 (Gallus gallus (SPF chick), UniProt A0A8V0ZXK1)
T14 construct: Uncharacterized protein, Gallus gallus, GN = GPC2; source: endogenous, chicken bone marrow DC lysate

[14] = molecular target: T15, UBX domain-containing protein 2B (Gallus gallus, UniProt A0A1D5P1A7)
T15 construct: UBX domain-containing protein 2B, Gallus gallus, GN = UBXN2B; also called UBXN2B; source: endogenous, chicken bone marrow DC lysate
T15 sequence (Q5ZLK2 whole entry, the tested form may be a part): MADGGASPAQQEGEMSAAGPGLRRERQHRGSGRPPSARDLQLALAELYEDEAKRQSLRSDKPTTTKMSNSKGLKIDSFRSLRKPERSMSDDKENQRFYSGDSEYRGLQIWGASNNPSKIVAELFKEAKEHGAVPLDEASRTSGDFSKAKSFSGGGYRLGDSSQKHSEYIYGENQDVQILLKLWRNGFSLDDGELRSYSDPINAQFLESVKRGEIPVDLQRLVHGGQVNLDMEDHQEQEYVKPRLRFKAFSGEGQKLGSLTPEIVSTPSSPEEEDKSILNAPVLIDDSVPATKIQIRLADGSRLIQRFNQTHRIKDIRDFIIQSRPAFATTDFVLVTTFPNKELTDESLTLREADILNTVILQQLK

[15] = molecular target: T16, Collagen alpha-2(VI) chain (Gallus gallus (SPF chick), UniProt P15988)
T16 construct: Collagen alpha-2(VI) chain, Gallus gallus, GN = COL6A2; also called COL6A2; source: endogenous, chicken bone marrow DC lysate
T16 sequence (P15988 28-1022): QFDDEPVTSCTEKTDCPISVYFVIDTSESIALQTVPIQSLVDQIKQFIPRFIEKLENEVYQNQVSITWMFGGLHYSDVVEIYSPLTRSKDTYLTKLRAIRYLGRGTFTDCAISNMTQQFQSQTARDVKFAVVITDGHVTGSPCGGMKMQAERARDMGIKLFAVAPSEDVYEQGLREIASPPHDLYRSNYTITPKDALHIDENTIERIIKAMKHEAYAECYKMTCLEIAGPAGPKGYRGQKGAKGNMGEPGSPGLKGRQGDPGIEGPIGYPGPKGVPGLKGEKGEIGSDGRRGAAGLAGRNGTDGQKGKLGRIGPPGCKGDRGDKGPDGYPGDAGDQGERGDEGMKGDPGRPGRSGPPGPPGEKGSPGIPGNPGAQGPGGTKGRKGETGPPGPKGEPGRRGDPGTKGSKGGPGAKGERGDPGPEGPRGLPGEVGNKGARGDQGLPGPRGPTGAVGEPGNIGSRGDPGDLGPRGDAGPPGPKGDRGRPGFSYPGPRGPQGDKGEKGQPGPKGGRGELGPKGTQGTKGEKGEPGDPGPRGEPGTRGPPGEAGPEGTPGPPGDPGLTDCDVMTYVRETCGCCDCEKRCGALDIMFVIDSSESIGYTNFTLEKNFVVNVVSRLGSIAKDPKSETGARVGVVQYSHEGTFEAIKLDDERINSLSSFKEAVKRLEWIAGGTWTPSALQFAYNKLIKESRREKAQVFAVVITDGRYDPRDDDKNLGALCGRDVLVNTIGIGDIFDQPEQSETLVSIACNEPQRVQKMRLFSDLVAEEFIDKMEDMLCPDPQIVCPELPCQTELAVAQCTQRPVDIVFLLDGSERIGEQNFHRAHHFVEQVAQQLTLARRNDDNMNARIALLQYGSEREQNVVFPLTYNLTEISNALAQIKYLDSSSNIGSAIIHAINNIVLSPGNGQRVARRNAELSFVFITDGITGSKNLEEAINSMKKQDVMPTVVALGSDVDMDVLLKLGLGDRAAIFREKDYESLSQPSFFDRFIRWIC

[16] = molecular target: T17, RanGAP1_C domain-containing protein (Gallus gallus, UniProt A0A8V0YG17)
T17 construct: RanGAP1_C domain-containing protein, Gallus gallus, GN = RANGAP1; source: endogenous, chicken bone marrow DC lysate

[17] = molecular target: T18, zf-C2H2_7 domain-containing protein (Gallus gallus (SPF chick), UniProt A0A8V0Z1I9)
T18 construct: zf-C2H2_7 domain-containing protein, Gallus gallus, GN = PRR35; also called PRR35; source: endogenous, chicken bone marrow DC lysate
T18 sequence (A0A8V0Z1I9 entry or part of it): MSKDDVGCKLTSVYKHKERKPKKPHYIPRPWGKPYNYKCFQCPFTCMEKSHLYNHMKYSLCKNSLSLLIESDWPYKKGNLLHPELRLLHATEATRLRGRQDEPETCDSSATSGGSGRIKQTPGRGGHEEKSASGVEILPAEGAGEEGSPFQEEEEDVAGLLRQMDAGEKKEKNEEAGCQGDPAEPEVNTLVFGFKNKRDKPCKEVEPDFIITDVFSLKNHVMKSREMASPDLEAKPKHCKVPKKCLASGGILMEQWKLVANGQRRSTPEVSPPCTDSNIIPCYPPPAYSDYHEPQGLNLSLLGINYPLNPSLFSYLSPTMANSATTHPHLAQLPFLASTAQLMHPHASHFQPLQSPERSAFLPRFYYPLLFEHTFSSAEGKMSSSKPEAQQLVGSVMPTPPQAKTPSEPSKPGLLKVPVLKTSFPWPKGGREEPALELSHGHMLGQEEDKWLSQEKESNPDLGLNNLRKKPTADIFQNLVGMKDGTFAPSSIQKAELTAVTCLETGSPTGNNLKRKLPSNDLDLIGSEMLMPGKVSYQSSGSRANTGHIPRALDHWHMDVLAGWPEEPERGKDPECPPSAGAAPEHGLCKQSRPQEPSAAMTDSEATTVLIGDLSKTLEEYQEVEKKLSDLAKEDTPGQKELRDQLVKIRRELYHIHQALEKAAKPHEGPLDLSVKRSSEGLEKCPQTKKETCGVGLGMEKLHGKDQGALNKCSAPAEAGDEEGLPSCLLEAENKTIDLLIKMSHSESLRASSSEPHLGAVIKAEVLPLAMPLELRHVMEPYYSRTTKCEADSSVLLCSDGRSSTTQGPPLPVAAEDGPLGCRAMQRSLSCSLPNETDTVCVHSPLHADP

Measured: binding result

B1: GST-VHH-54 (VHH)
VHH: QVQLVESGGGLVQPGGSLTLSCAASGFTFSKYPMTWVRQAPGKGLEWVSTITSGGTTTYADSVKGRFTISRDNAKDTLYLQMNSLKPEDTAIYYCAELGLPPGGQGTQVTVSS
notes: VHH from a non-immunised alpaca library; VHH gene of phage-54 fused with the GST gene in pGEX-4T-1; also called VVH-54; VVH54; source: expressed from pGEX-4T-1 and purified
binds: [1] | [2] | [3] | [4] | [5] | [6] | [7] | [8] | [9] | Calreticulin

B2: GST-VHH-74 (VHH)
VHH: QVQLVESGGGLVQEGGSLRLSCVVSGSRDSINAMGWYRQAPGKQRELVATVAGVGSTNYAASVKGRFSISMDNAKNTAYLQMNSLKPEDTAVYYCVADLRGSDRWLWAQGTQVTVSA
notes: VHH from a non-immunised alpaca library; VHH gene of phage-74 fused with the GST gene in pGEX-4T-1; also called VVH-74; source: expressed from pGEX-4T-1 and purified
binds: [10] | [11] | [12] | [13] | [14] | [15] | [16] | [17]
